In a protein production outcome set (Wang et al. 2014):

experiment: label from the status in PepcDB records

| Sequence | protein production |
| --- | --- |
| MNHLKKLVSILICTLLIVSLLPFSVWADSQERDGTDVEEITTKEKVTQETTSNETTSEPLKGTTVNKAINAKSFPTGNYSGDFSINSQKDVIESGQTVNYNIYLKITGPNTRYQNAKLVINLPKNGEFNQSLNELKIAGATPSYNKTTRQLVYTYQTLNSGVVDKVILKMTTKNGYTPNGTKLVVTGELSADNLSEKVTEQAETTVNATATTALSNDFTKVENSINNNPSQGDIGIWSFNLNIPKKSTGSLFMEEGKKIVIEYTLADKLDYLGVAGDTPEPTKVEGQKLTWEIAAPTYLEQEKANSLLNKTFQIRTFFQPTIPNFATVENKAVATTNFVTLTDSIVDTSKASVSVSASDPATIPPTIGSVYAPAHRGPVDANWGIATVTGNPDIKVYDTAKLGFSLMLNSAMNDSPWYDFLYYDAYYNIDDNLNLDYFRSGDFYFKPNVNYPGWAQLKKSPKYNLLVKYDGDTDWTTLKEDVELSKMYSRKDLGIPDDKHVSKVWLHFTYAPAGMYAADLSFFTTVKEGYVGEVRNSTQINMYGADSQDYIHYYDDTNPWPEAWKNYAGDRTAQIIPQPTGKNKFVQGSVVFDDTDGNLINIGDNSISVNLESNKASISRLKGPFEAMVLLPSGVKMKNTEQNGFKVTVLNENYQNAGRQLLKVKWDKKTLLPAEKLTAKINVSVAKDTPSNMTVEMFGFLQDTDFNVPEVSGTPTISDTKMEIDSNDINQNGNSEESRITSGNHYILNTSNHLKISKKAKGNRDKEYSGLANATTNSIVSYQLSLENDSDEKIANMVLMDVLPSENDLGITDNSERGSKFNLALTKAVEVPKEWKDKVEVTYSTAKNPKRAGILDKHTIYPIGTEPLVDNTEATQADWLTASEVKDWSNIYSFKIELKEGIEWIPGKSMKIQFDLKTPKKNQIDKTLLKQQTKKEDRAAWNSFAVAVNNSQVIEPAQVGVALDDSVAPVTVQYVDQNHKQIASPETLTGAYGEKFTAKQKKINNYSLVKIPANVSGTFNEKAQTITFIYQKVTAGRIIVNYVDKNGEKIADSIVLNGKLNSSYTTSSKKISGYKLYQTPKNATGKFLNTSQTVTYVYERTSNLSISSSNKGTENVKKLAKLPHTGDSTTTNLWVIIGLFMLSGAFVIMKKR | failed |
| MNHVAVIGGGIIGASWAVVFARRGLEVTIVERDAACLAGLPARLAGMIERSASLLGAGEQPGDVAARIGATDALAAAVGRADYVQEAVSENLALKRTLFAELDALAPAHALLASSTSTYGASQFTEALAGRARCLVAHPMTPPHLSPVVEMAASAWTDPQVLAGAEAFMRSLGQHPVRIRKEIPGFVLNRLQGALLMEMFRVIADDVISPADADALISQGLGLRWATLGPLEGVDLNAPGGIADYLQRYGHIFNDMAVGQGLPAPVDAELISALDGAMRAALPLERLEAKRGWRDRAIAGVRVALHDYTGEKPLEHHHHHH | failed |
| MNIEEAKELVDNSKFYGKTSSVIKAEVRDIIDQLNQPKPEVPQCVADWIEECKEEDLTLKGLFSNSDMPAKIFDWIFGSDENCRLMAEAWINGYTVEKEKLYTVDLPNGQPLVRGINTLYFSQNLATENVKLTESEIRKDFEWAWQFAEEVTE | failed |
| MNIEQMLAILDPDVVQRLKIAVEIGKWPNGVALTAEQRQICMQAVMIWEHKHLPEEERTGYIDRGTKEEGEECDSHEPEIKPIRFI | failed |
| MNIPNLLTLFRFFLIPCFIFAFFSRSNDSLINSAIIFFIAGFTDILDGYIARKFNEITKYGTVMDPLADKLMLLTVLCCLTIKGYIPLLILLIMLAKEFSMIIIGVFLYGKNIIIPANIWGKLSTLIFYVAILFFTFSKFLGTYLLYIAILGAVVAYINYFLIFLSKYRQNATK | failed |
| MNIQQLEYIAALDKFRHFAKAADYCNVSQPTLSTMILKLEEELGAKLFDRSRQPIEPTSIGALVVSQAKQILYDLNSITRIIEEEQ | failed |
| MNIQSELEFKFAHYLINNAVEASFCLGDNWQFLYVNDATCRMTEYSREQLLSMNLQDIDVDFALHDWEEIRQKNNYTFKTRYRSQSGRIFLVEMSLTFLEDQERRFSCVFVREKS | not failed |
| MNIRIAEELDVPALAELYQTTVLAVAPQHYSPEQTQMWASFASDTDNFQKFILNATTFIATDERGILGFAGITEDGHVTATYVRSDLIRQGIGSILMEKILEYAHLHKIRRLYAEASEFSLGLFQKFGFHIYDTEIVNRQGVLFRRYIVERS | failed |
| MNISLVFPPFHLQSLYNLPPLGLISLATVLGEAGHRAVIRDLVLALRQGSLGMGKELYGEAARMILRDDPDLVGFSAQCTTFPAVVRIARLLKEQKPDLRIVAGGHNVSFLDVPTLERFPWIDAVVRGEGEVTFRELAASFAVGNDPAEVAGVTWRRGTEIVRNPDRELIADLDTLPLPDYTLVPPLASYRDACGIPRSIAILEVGRGCPHRCVYCSESVMWRRRTRTFSIPRLIREMEELHGRFGAECLVLAYDQFTADRRFVEEFCNRVIDARLNRVPWYCISRLDSLDRPLLDLMREAGCESMCYGIDSGSRRTLAFIGKEIDEGILYQRVRETTEAGMVPTLSFVIGFPEEEREDIDQTLFLALKAGVQGNSAPLVQLPTVLAGTELHRRYTGRLVREVDTYFSLGLEFDHGRRLADDERLIDADPFLFSSFYNLPCAGVPLAELDRIARWFPLILNGYPKSFILLSLALGRPPSNLFREILSRLEEDGWREDDPTAETAFLERFPCHAEGLMAGSASWPHFAEILTYETLALRATHRGPPRADGAGPLKGDPAGECRPVLREEVTVSEFRRNLPAIIADLKSGIFRESYPPEPTLLIFYPSGERLEVMEINRFGKDFLLLCNGLATCEEIAATLYGEYGDAMDSGAFSEECKDALTVFTGMGLVRDGAAPAP | failed |
| MNIVYLLMLSLILFSIGLYGISTSNVGIKMLISLEIIINSAILAGVSISSFYFSTGVLIFVLFAIAIGVIESAVGIAILTMVYKKYGRITISLLKEIKW | failed |
| MNIYSLFVVAIALSLDAFGVALSIGLDSCVKRKNKLLFAISFGFFQFLCTFIGAYSGFLFNTYITYVPQIIGGMIIAFVGAFMIKEGFDNKEEKLLLNFKMYFVLGISVSIDAAVVGFTMFNKISSNYVILGDSVFIGIVTLILSIIAFIISRYLKRIQLVCKYADYIGGIILVIFGLKMMFF | failed |
| MNKAGARASDQETRRFGFVEWFRPGDYERAEVALPDILESGASYLRTHLSWAEYLAPGGQQWFDWLIPRIGGQIDLLPCIHYTPPSLSRTGRSSGPPVNLKSYADFVDHVLTRYGRYISHIELWNEPNNLLDWDWRHDSDFLLFCEMVGGAAYWAKQRGYKPVLGGPCPFDPYWLNLMGTRGVLGVVDAVGFHGFPGTWDSEEATWGGWDMHLGEMRGIIDRYNADAEIWITETGYSTWRNDEIEQARRFTKALKVPADRMYWYSWRDVPPDVPVQEGLWFDPRHYHLGAVSHDNKPKLLARLLTEGGVKRLEEVAALAAPNITSGAAPIIVTGGSGFVGCNLADRLLSDGEDVIILDNLARSGVDQNLSWLKERHGGRVHPVLADVRDLLGIEAAFRDAKAVFHYAAQTAVTTSLVDPLEDFETNARGTLNVLESIRRAGKRAPIIFASTNKVYGALDDLGMIELDDRYLPEDESIRTLGIGEDRPLDFCTPYGCSKGVADQYILDYAKSYGIPAAVLRMSCIYGPRQFGTEDQGWVAHFLIRALGGEPISIYGDGKQVRDILHVDDAVAAYRVLLSNIGQVSGKAFNLGGGPRNAVSVLAVLREIEELAGRPVETSFGPWRAGDQLYFVADTTRLEQETGWQAGIGWRHGLRHLAEWLIAHRFGGRQIRREKRKASA | failed |
| MNKALKALGVLTTFVMLIVLIGGALVTKTGSGQGCGRQWPLCHGRFFPELNPASIIEWSHRFASGISIILVLSLAFWSWRKITPIFRETTFLAIMSIIFLFLQALLGALAVVFGSNALIMALHFGISLISFASVLILTLLIFEADKSVRTLVKPLQIGKKMQFHMIGILIYSYIVVYTGAYVRHTESSLACPNVPLCSPLNNGLPTQFHEWVQMGHRAAALLLFVWIIVAAVHAITSYKDQKQIFWGWISCLIFITLQALSGIMIVYSELALGFALAHSFFIACLFGVLCYFLLLIARFRYESRQS | failed |
| MNKALWYVVLPALLVTVLAQRFGHLTVNFPLKSVFGGAAPAEAALHRRIALPSGFSLTVYAADLPGARMLRFTRTGDLLVSQPNAGAIVLLEKDADGDGRPDGRRQLLTGLSRPHGLDLRDGWLYVAETYGVVRVRYDAAQRQISGAPEMVVSGIPGGGNHWSRTLKFGPDGGMYVSVGSSCNVCIEDDPLRATLLRFEPDGTKREIYATGLRNTVGFDWRPGSRELYGTDNGRDLLGDDFPPCELNRIEKGGFYGWPYANGNRVPDPDYGRGHEADIRRSLPPVHEFRAHVAPLGMVFLKGGGLPQDYRGAALVALHGSWNRSKKQGYEVVSLHFGADGRIAERPFMTGFNVDEDVIGRPVDVAEGPDGAIYVSDDYAGAIYRVLYRPPVTASHD | failed |
| MNKFENFYKVPISYKNRKNEIYKYDNLEYNKMKYGMPEYYRCPYYMHENRNLYNTESCYTPNINVGRNSFYGKTLDPNDKICEENDSVYNILEEDHKEESFKKIECMNKEDDRKKIYNKVEKNDDENIDNKKHNYCEKYEEVYPKDRSSIKIIYNDVDQQIDHNLYDDENEIVCDNEIKKRKKRDRKVFMGKYFFSDIINTIIYPCTNKSLQKYQYGSVENMDYSLYNDIQKGQKIQKVDKIKNKKAPQIIVKF | failed |
| MNKFLVSLFLPLVAFANSSEAAANANLFGAFTLIPPLVAIALAFITKDVILSLFTGVLSGTFLLSLSANIFKAQHLTFVNYYNTTVESFSKIISYILGSTSDPVNAGIILQILCIGGLVALITKMGGAKAVALKFAKRAKSAVSAQVNTWFLGLLIFFDDYANLLIVGPIMRPLADKFKISREKFAFIIDSTAAPVAGIAVISTWIGLEVSLIKTAYEHIGISNISAFGIFVETIPYRFYNIFMLFFVVMTAIMRREFGSMYKAEVRARTTGQIAPLPKSGTLDTTELEDQFLAPKEGIKIRAFDAIVPIFTLIILAILGFYFNGLSTLEGEELAKASANPLSFETFRAAFGNADSSVVLFQAALFAAIVAIFIGVRRKIFNLKEAVETWIYGWKTMIFTIVLLLFAWSLSSIVKDLGTSLFITSLLADKLPEFILPATIFAFASAISFAIGTSYGTMGILMPLAVPLAHEIAKINGMDANAMHHYMVINISCVLTGAIFGNHCSPISDNVILSSMSAKCDHMEHVRTQIPYALFICGISLIAGYIPVSLGLSVWFVLPLNFILIALLLRLIGKKVP | failed |
| MNKITSAFIRVLRQSSSSGGTGNLLGRQLSYKSDLSLDKIYPGARLQIYTPPPPPSGSDKFSGFIPMDRLEITYSRSSGPGGQHVNTVNTKVDVRFKVAQADWIPEQTRQKLLKVLANRITKDGYFYIKSDLTRSQQMNLADALEKLRTIIRSQEAVAPAPPSEETLEKLRRRQERAVRERLQLKRGRAQVKADRQGPSGLDL | failed |
| MNKKILLIGGGGHCKSVLDSLLDLDEYDDIGIIDTKENVGKAVLGTPILGYDRDLPSLYKDGYHYAFVAVGSIGNPSVRIRLFNTLCEMGFIIPNIVDASAKVSKHSQIDKGVFIGKHVVVNAGAVIGQGAIINSGAIVEHDCEIGEFVHIAPGTVLCGGVKIGRHSHIGTNSTVKQGIHIGSNCLIGMGSVVTKNIRDNVIAYGNPCREVKNLLEHHHHHH | failed |
| MNKKILTLLVLILSISSVLMLSKSITKKSKYKIIRDYFINSNYVLVKIENKDLKFTISKPIYDKKLNNYFFKGQTTSHFLISNNVDIAINTSPYEVKQNMFFPKGLYIYNKKMISKQINNYGEIVIKHNKIILNPKEDEIENCDYGFSGFFVLIKNGKYKKNFKETRHPRTIIGTDKNNKHLFLVTIEGRGVNNSKGASLNEAIDFALSYGMTNAINLDGGGSSTLVVKSNNAPYKLNFTANIFGQERPVPFHLGIKLPN | failed |
| MNKLLLVAAGGAVGSVARYLVGVGAMRVMGPGWPYGTFTVNVVGGFLMGCLASWLAHRGNTSSETWRVMLGVGVLGGFTTFSSFSLETALMIQKRAYGQAFTYSAASVLLAIAALFAGLLVARKVFA | failed |
